Tests used:
[1] = biological target: T1, recombinant human BMP-6 (R&D Systems) (human, UniProt P22004 382-513, limits assumed); experiment: pull-down on Talon metal affinity resin with immobilised His-hCHL2, immunoblot with anti-BMP-6 antibody
T1 construct: Bought reagent
T1 sequence (looked up): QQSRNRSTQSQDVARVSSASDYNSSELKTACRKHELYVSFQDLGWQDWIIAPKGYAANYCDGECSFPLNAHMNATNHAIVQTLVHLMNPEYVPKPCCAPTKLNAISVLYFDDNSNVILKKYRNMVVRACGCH
Description: (§1) Protein binding assays with His-tagged hCHL2 protein Culture media of COS7 cells, transfected with hCHL2 cloned in pcDNA4/His, or empty vector (see above), were collected every 24 hrs, beginning at 48 hrs after transfection for a total of 96 hrs, and concentrated 10-fold by ultrafiltration through a YM Millipore membrane under nitrogen pressure (Millipore, Bedford, Mass.) before binding of secreted His-tagged hCHL2 to BD TALONTM Metal Affinity Resin (Clontech, Palo Alto, Calif.). The resin was added to the concentrated medium, rotated for 30 min at room temperature, and then washed twice with loading buffer (50 mM NaH₂PO₄, pH 8, 300 mM NaCl, 5 mM imidazole) and resuspended in 200 μl of binding buffer (1 mM CaCl₂, 3 mM MgCl₂, 0.2% NP-40, 1 mg/ml BSA in PBS). The His-hCHL2, immobilized on the resin, was incubated with 200 ng of recombinant human BMP-2, -4, -6 or Activin A (all purchased from R&D Systems), while rotating for 1 hr at room temperature, and then washed once with binding buffer and twice with binding buffer supplemented with 0.2% Tween. […]
(§2) COS-7 cells were transfected with a pcDNA4 (Invitrogen, Carlsbad, Calif.) vector expressing His-tagged hCHL2 (coding region corresponding to variant II, SEQ ID NO:6), and the culture media were collected for 72 hrs. […] No interaction was detected with any of the other proteins tested (BMP-2, 4, or 6).

[2] = biological target: T2, recombinant human BMP-2 (R&D Systems) (human, UniProt P12643 283-396); experiment: pull-down on Talon metal affinity resin with immobilised His-hCHL2, immunoblot with anti-BMP2/4 antibody
T2 construct: Bought reagent
T2 sequence (P12643 283-396 limits assumed): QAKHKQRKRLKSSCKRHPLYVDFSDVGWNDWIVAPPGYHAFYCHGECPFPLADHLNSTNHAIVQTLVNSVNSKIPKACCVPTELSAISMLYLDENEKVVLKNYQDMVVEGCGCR
Description: as §1, §2

[3] = biological target: T3, recombinant human BMP-4 (R&D Systems) (human, UniProt P12644 293-408); experiment: as above
T3 construct: Bought reagent
T3 sequence (looked up): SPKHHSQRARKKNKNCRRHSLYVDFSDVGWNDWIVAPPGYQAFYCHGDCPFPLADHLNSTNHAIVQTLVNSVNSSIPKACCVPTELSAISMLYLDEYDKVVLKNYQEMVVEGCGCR
Description: as §1, §2

binding result [1]: no binding (tested: 200 ng) | binding result [2]: no binding (tested: 200 ng) | binding result [3]: no binding (tested: 200 ng)
B1: His-tagged hCHL2 (variant II), secreted from COS-7 cells transfected with pcDNA4/myc-His-hCHL2 (other, not shown: small tags and cut ends)
chain: RARPDMFCLFHGKRYSPGESWHPYLEPQGLMYCLRCTCSEGAHVSCYRLHCPPVHCPQPVTEPQQCCPKCVEPHTPSGLRAPPKSCQHNGTMYQHGEIFSAHELFPSRLPNQCVLCSCTEGQIYCGLTTCPEPGCPAPLPLPDSCCQACKDEASEQSDEEDRVQSLHGVRHPQDPCSSDAGRKRGPGTPAPTGLSAPLSFIPRHFIPKGAGSTTVKIVLKEKHKKACVHGGKTYSHGEVWHPAFRAFGPLPCILCTCEDGRQDCQRVTCPTEYPCRHPEKVAGKCCKICPEDKADPGHSEISSTRCPKAPGRVLVHTSVSPSPDNLRRFALEHEASDLVEIYLWKLVKDEETEAQRGEVPGPRPHSQNLPLDSDQESQEARLPERGTALPTARWPPRRSLERLPSPDPGAEGHGQSRQSDQDITKT
notes: also called His-tagged hCHL2 protein

Reference: US20050118615A1 (COMPUGEN, published 2005)
